Experimental data published in patent US11198713B2, “Agents modulating beta-catenin functions and methods thereof” (FOG PHARMACEUTICALS, INC., priority 2017, dated 2021).
Converted amounts (≈) assume the structure as drawn. Read-outs that look alike come from different tables or passages of the source. Bridge positions count the residues as written; N and C are the ends. Square brackets hold non-standard residues; d marks the D form. MB = Monomer B = PyrS, Alloc-pyrrolidine stapling residue (allyl carbamate on pyrrolidine N); MI = Monomer I = ReN, acyclic amine-bearing olefin stapling residue; R8 = C=CCCCCCC[C@@](C)(N)C(=O)O; R5 = C=CCCC[C@@](C)(N)C(=O)O

B1: FP0217c Isomer 2 (peptide)
peptide: Ac-A[R8]ILDAHI[MB]RVW-NH2
modifications: staple 2-9; also: Isomer 2, staple olefin E/Z not assigned
notes: also called FPO217c isomer 2; FP00217c Isomer 2
B2: FP0783a (peptide)
peptide: Ac-PQ[MI]ILD[R5]HVRRVWR-NH2
modifications: staple 3-7; also: amino staple (-N(R')-), from carbamate staple by metathesis then Pd(0) CO2 extrusion
notes: also called FP-0783 (amino staple)

Experiments:
[1] = biological target: T1, full-length beta-catenin (Axin site) (Homo sapiens, UniProt P35222); assay: Competition fluorescence polarization assay (Axin site probe); assay type: binding; details: competition fluorescence polarization, Table 2; read-out: in vitro FP EC50
T1 construct: 15 nM full-length beta-catenin, 20 nM FITC labeled peptide in buffer
T1 sequence (P35222 1-781): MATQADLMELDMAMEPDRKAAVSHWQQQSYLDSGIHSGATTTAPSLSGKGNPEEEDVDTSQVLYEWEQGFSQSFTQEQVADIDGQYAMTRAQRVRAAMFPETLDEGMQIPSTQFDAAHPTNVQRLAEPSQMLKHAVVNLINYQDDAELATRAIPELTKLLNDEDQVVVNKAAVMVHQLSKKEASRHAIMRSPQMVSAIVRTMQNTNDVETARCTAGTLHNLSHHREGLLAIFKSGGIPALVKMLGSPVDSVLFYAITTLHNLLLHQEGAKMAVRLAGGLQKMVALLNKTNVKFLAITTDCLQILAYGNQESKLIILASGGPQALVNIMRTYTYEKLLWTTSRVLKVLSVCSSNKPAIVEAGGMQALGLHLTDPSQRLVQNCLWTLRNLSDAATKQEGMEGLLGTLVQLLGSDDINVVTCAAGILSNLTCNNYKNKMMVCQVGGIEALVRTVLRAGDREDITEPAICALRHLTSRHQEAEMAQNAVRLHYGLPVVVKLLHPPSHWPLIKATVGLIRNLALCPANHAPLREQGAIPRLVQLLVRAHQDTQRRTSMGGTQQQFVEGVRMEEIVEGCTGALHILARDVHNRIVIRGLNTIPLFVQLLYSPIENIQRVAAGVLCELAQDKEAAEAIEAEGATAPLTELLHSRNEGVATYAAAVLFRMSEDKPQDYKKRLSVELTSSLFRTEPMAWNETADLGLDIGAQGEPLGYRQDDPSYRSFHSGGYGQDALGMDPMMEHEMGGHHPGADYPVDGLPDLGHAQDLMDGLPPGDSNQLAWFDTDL
In short: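 Competition FP: 15 nM full-length β-catenin pre-incubated 5 min with 20 nM FITC-labelled stapled Axin-site peptide, then titrated peptide added (3-fold series from 5 μM) for 15 min in the dark. Buffer 50 mM Tris pH 8.0, 250 mM NaCl, 2% glycerol, 0.5 mM EDTA; duplicate reads.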

[2] = biological target: T2, biotinylated beta-catenin (Homo sapiens, UniProt P35222); assay: Surface Plasmon Resonance (Biacore); assay type: binding
T2 sequence (P35222 1-781): T1 sequence (P35222 1-781)
Description: Additionally or alternatively, binding to beta-catenin may be measured by Surface Plasmon Resonance. In an exemplary assay, approximately 6 nmol dried peptide diluted in buffer (50 mM Tris pH 8.0, 300 mM NaCl, 2% glycerol, 0.5 mM TCEP, 0.5 mM EDTA, 0.005% Tween-20, 1 mg/mL CM Dextran, 0.02% w/v sodium azide) was assayed on a Biacore X100 using the Biacore Biotin CAPture Kit (GE Healthcare) and biotinylated beta-catenin. Results were analyzed using the Biacore X100 Evaluation Software. […] FPO217c (Isomer 2) bound to the armadillo domain of β-catenin with a Kd of 2 nM.

[3] = Solubility in DPBS (A280 of supernatant); assay type: physicochemical; details: DPBS
In short: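 Dried peptide reconstituted in DPBS in triplicate, vortexed, sonicated and centrifuged. Supernatant A280 measured; concentration calculated using the tryptophan extinction coefficient.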

Plasma PK in rats = assay type: in vivo; details: rat, plasma; IV 0.5 mg/kg, male Sprague-Dawley rats
Description: (§1) FIG. 6. Exemplary pharmacokinetic properties. Peptides were formulated in 10% DMSO:90% saline and dosed by IV at 0.5 mg/kg per compound in three male Sprague-Dawley rats. Serial bleed time-points were taken at 2 min, 6 min, 10 min, 15 min, 30 min, 1, 2, 4, 6, 8, 12 and 24 h and analyzed by quantitative LC/MS using a Thermo Q-Exactive Focus LC/MS/MS. Samples were prepared by protein precipitation with MeOH. Data were fit to a two-compartment model.
as §1, with “Various technologies can be utilized to assess properties of provided agents, e.g., stapled peptides, in accordance with the present disclosure. In some embodiments, plasma PK methods are used to assess” for “FIG. 6. Exemplary”, “In an exemplary assay, peptides” for “Peptides”, “model. […] Exemplary data are presented, e.g., in FIG. 6.” for “model.”

full-length beta-catenin [4] = biological target: T3, full-length beta-catenin (UniProt P35222 2-781, limits assumed); assay: competition FP
T3 construct: mature; also called full-length ß-Catenin; β-catenin
T3 sequence (looked up): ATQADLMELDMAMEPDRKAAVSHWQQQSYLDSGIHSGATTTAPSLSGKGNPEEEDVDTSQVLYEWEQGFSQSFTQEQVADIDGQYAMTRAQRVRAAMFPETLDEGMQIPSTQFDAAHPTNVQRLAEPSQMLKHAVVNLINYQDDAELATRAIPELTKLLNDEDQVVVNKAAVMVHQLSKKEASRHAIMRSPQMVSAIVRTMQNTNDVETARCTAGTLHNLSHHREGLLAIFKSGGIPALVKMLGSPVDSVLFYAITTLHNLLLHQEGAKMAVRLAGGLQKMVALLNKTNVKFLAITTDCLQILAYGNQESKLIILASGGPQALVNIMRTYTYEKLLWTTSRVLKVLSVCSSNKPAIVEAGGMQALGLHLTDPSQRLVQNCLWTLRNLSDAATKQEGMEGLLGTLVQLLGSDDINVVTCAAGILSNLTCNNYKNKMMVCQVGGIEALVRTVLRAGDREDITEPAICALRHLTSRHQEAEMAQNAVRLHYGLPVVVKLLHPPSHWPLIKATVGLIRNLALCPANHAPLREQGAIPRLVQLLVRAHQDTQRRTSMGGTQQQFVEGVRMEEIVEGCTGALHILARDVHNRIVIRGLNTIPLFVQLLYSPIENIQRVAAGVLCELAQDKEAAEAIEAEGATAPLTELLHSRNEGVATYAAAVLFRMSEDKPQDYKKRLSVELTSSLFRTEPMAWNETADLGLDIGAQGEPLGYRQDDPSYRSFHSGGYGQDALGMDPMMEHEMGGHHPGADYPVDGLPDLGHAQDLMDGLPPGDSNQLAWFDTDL
Description: (§2) In some embodiments, a competition fluorescence polarization assay is used to assess binding of provided compounds to beta-catenin. In an exemplary procedure, solutions of provided compounds, e.g., provided stapled peptides, were prepared in a buffer (e.g., 50 mM Tris pH 8.0, 250 mM NaCl, 2% glycerol, 0.5 mM EDTA, 0.02% w/v sodium azide) using a 3-fold serial dilution from 5 µM. Probe solution (15 nM full-length ß-Catenin, 20 nM FITC labeled peptide in buffer) was prepared and incubated for a period of time, e.g., 5 minutes, and the a volume, e.g., 40 µL per well plated in suitable plate, e.g., a black polystyrene 384-well plate (Corning). Equal volume of the serial diluted peptide was added to the plate and incubated protected from light for 15 minutes prior to read. Reads were performed on a Spectramax M5 (Molecular Devices) in duplicate. Suitable probe was FITC-PEG1-PQ-S5-ILD-S5-HVRRVWR (SEQ ID NO: 1) (hydrocarbon staple formed by two S5 via olefin metathesis) and/or FITC-bA-PQ-S5-ILD-S5-HVRRVWR (SEQ ID NO: 3) (hydrocarbon staple formed by two S5 via olefin metathesis). […] Another peptide, FPO217c (Ac-AR_8ILDAHIM$B5$RVW (SEQ ID NO: 280), with N-terminal proline removed and valine replaced with isoleucine compared to FP0025c) was prepared.

[5] = biological target: T4, biotinylated beta-catenin (UniProt P35222 134-665, limits assumed, biotinylated (site not stated)); assay: SPR (Biacore, biotinylated beta-catenin)
T4 construct: also called beta-catenin (SPR); armadillo domain of β-catenin
T4 sequence (looked up): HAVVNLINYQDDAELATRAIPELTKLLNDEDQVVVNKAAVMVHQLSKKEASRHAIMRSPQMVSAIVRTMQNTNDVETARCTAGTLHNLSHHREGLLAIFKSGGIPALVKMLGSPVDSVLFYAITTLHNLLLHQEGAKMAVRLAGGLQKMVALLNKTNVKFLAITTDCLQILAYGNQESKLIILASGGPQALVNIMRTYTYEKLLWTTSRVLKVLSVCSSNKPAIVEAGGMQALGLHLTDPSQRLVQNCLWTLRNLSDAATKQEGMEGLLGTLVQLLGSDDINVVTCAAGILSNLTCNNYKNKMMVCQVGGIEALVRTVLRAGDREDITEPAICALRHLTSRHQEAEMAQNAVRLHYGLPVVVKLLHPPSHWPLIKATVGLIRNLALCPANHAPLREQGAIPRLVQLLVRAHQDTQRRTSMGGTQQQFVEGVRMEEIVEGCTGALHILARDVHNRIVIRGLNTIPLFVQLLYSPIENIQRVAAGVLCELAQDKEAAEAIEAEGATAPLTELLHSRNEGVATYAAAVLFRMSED
Description: (§3) Additionally or alternatively, binding to beta-catenin may be measured by Surface Plasmon Resonance. In an exemplary assay, approximately 6 nmol dried peptide diluted in buffer (50 mM Tris pH 8.0, 300 mM NaCl, 2% glycerol, 0.5 mM TCEP, 0.5 mM EDTA, 0.005% Tween-20, 1 mg/mL CM Dextran, 0.02% w/v sodium azide) was assayed on a Biacore X100 using the Biacore Biotin CAPture Kit (GE Healthcare) and biotinylated beta-catenin. Results were analyzed using the Biacore X100 Evaluation Software.

full-length beta-catenin [6] = biological target: T3, full-length beta-catenin; assay: competition FP, grade of FP EC50 (+++: <=100 nM)
In short: (§4)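 Compound 3-fold serially diluted from 5 µM in Tris pH 8.0, 250 mM NaCl buffer, added to premixed 15 nM full-length β-catenin and 20 nM FITC-labelled stapled axin-site peptide probe. Incubated 15 min in the dark, polarization read in duplicate.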

[7] = biological target: T4, biotinylated beta-catenin; assay: Table 3 'Binding Kd (nM)'; method not stated there (SPR in Example 2)
Description: as §3

full-length beta-catenin [8] = biological target: T3, full-length beta-catenin; assay: Axin competition fluorescence polarization; 15 nM full-length beta-catenin, 20 nM FITC-StAx-33 probe displaced by titrated peptide
full-length beta-catenin [9] = biological target: T3, full-length beta-catenin; assay: competition FP; amino staple (acyclic)
Description: as §2

full-length beta-catenin [10] = biological target: T3, full-length beta-catenin; assay: competition FP, grade of FP EC50 (+: 500-5000 nM)
In short: as §4

full-length beta-catenin [11] = biological target: T3, full-length beta-catenin; assay: competition FP, grade of FP EC50 (+: 500-5000 nM); competition FP vs FITC probe, 15 nM full-length beta-catenin, peptide diluted from 5 µM; grade + (500-5000 nM EC50)
Description: as §2

Molecule	Kd [5] [µM]	FP EC50 (full-length beta-catenin [6]) [µM]	Kd [7] [µM]	EC50 (read off the curve) (full-length beta-catenin [8]) [µM]	FP EC50 (full-length beta-catenin [11]) [µM]	other results
CC[C@H](C)[C@@H]1NC(=O)[C@H](Cc2c[nH]cn2)NC(=O)[C@H](C)NC(=O)[C@H](CC(=O)O)NC(=O)[C@H](CC(C)C)NC(=O)[C@H]([C@@H](C)CC)NC(=O)[C@](C)(NC(=O)[C@H](C)NC(C)=O)CCCCCCC=CCOC(=O)N2CC[C@@](C(=O)N[C@@H](CCCNC(=N)N)C(=O)N[C@H](C(=O)N[C@@H](Cc3c[nH]c4ccccc34)C(N)=O)C(C)C)(C2)NC1=O (single isomer, unassigned) [FPO217c Isomer 2, Ac-AR8ILDAHIMBRVW (SEQ ID NO: 280)]	–	–	–	–	–	EC50 [1]: < 0.1 µM; Kd ([2]; Biacore, biotinylated beta-catenin, read-out: Kd): 0.002 µM; Kd ([2]; Table 3 Part A, read-out: Binding Kd): 0.004 µM; solubility ([3]; Table 2, read-out: Solubility): 7 µM (≈ 11.1 µg/mL); solubility ([3]; Table 3 Part A, read-out: Solubility in DPBS): 12 µM (≈ 19 µg/mL); half-life (Plasma PK in rats): > 1 h
B1	0.002	≤ 0.1	0.004	~0.07	–	fold better potency than FP0217c Isomer 1 (full-length beta-catenin [4]): > 10 fold
AXILDAHIXRVW (not fully specified; Ac-A-MG-I-L-D-A-H-I-MB-R-V-W-NH2; carbamate staple MG/MB) [FP0597c]	0.004	≤ 0.1	0.004	~0.06	–	–
B2	–	–	–	–	–	EC50 (full-length beta-catenin [9]): 1.4 µM; FP EC50 (full-length beta-catenin [10]): 0.5 to 5 µM
AXILDAHIXRVW (not fully specified; Ac-A-R6-I-L-D-A-H-I-MF-R-V-W-NH2; amino staple R6/MF) [FP0502a]	–	–	–	–	0.5 to 5	–
AXILDAHIXRVW (not fully specified; Ac-A-MI-I-L-D-A-H-I-S5-R-V-W-NH2; amino staple MI/S5) [FP0506a]	–	–	–	–	0.5 to 5	–
